Stoichiometry N data for two substances are collected here from article doi:10.1101/2022.10.14.512337.

“And” between values parts separate entries of the source, which are not always exact repeats. Equal entries are not always repeated.

Experiment [1] deals with truncated protein consisting of the main body of L. farciminis OxDC (aa 22-373) (L. farciminis). Nature of the experiment: crystal structure.
For experiment [2], the target named is L. farciminis oxalate decarboxylase (OxDC), as used for size-exclusion chromatography (L. farciminis). Kind of experiment: SEC. On the technique in general: In gel filtration, larger molecules generally elute earlier.

The substance “truncated protein consisting of the main body of L. farciminis OxDC (aa 22-373) (domain or fragment)” gave a stoichiometry N in experiment [1] of 6. “L. farciminis oxalate decarboxylase (OxDC), as used for size-exclusion chromatography (enzyme)”: the stoichiometry N in experiment [2] was 2 and 6.

Broadly, the stoichiometry N is the number of molecules, sites or subunits per partner or assembly.
